Measured values published in the supplement of paper PMC7125110.
± gives the standard error. Variants at the floor of the assay were thinned out.

B1: glmS ribozyme (parent)
chain: AUAAAAGCGCCAGAACUACAGAAAUGUAGUUGACGAGGAGGAGGUUUAUCGAAUUUUCGGCGGAUGCCUCCAAA

Variants of: B1
Assay: self-cleavage kobs at 2500 uM GlcN6P; higher = faster cleavage; RNA array
Conditions: with glucosamine-6-phosphate
Method in brief: (§1)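 Tiles of sequenced MiSeq chips were imaged over ~14 h at 37 °C. On them, barcoded ribozyme variants had been transcribed in situ by E. coli RNA polymerase and were tracked via a hybridised Cy3 probe while glucosamine-6-phosphate (40 μM to 10 mM) in HEPES/KCl/Mg(OAc)2 buffer flowed in. Per-tile medians, normalised to baseline and to non-cleaving reference variants, were fit to one- or two-exponential decays for kobs, and weighted Michaelis–Menten fits gave kcat and KM.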

G38C C50A U65A and C16U G29A G41U G51U cannot be ordered by “self-cleavage kobs at 2500 uM GlcN6P” value: < 1e-05 s⁻¹ for the first, < 1e-05 s⁻¹ for the second.

Compared with G40U U46C A64G, A39G G51A C68U is lower in “self-cleavage kobs at 2500 uM GlcN6P” value: 9.83e-05 ± 2.4e-05 s⁻¹ for the first, < 1e-05 s⁻¹ for the second.

C34G G35U G43U and G7C C50U C67A cannot be ordered by “self-cleavage kobs at 2500 uM GlcN6P” value: < 1e-05 s⁻¹ for the first, < 1e-05 s⁻¹ for the second.

C10G C34G G51U and C10U G29U A33G A39C U55G C70G cannot be ordered by “self-cleavage kobs at 2500 uM GlcN6P” value: < 1e-05 s⁻¹ for the first, < 1e-05 s⁻¹ for the second.

First: A42C C58A G60U
Second: A15G A39U A64C
The “self-cleavage kobs at 2500 uM GlcN6P” value of the first is lower: < 1e-05 s⁻¹ for the first, 0.000106 ± 2.7e-05 s⁻¹ for the second.

First: A33G A36C G44C U45A C50U C71A
Second: G43C C67A U69G
The “self-cleavage kobs at 2500 uM GlcN6P” value of the first is lower: < 1e-05 s⁻¹ for the first, 0.000151 ± 6e-05 s⁻¹ for the second.

First: C34A G43A C50G U54C
Second: U31G A53U C70A
The “self-cleavage kobs at 2500 uM GlcN6P” value of the first is lower: < 1e-05 s⁻¹ for the first, 0.000207 ± 6.4e-05 s⁻¹ for the second.

A39U A48U C67G and A12G U49G A64G are within error of each other in “self-cleavage kobs at 2500 uM GlcN6P” value: 0.00017 ± 6.1e-05 s⁻¹ for the first, 9.53e-05 ± 2.8e-05 s⁻¹ for the second.

Going from C16G U54C C70U to C11A U47G C61G, the “self-cleavage kobs at 2500 uM GlcN6P” value falls from 0.00152 ± 0.00038 s⁻¹ to < 1e-05 s⁻¹.

A36U G40U A64C and G32U G41U G44A C70U cannot be ordered by “self-cleavage kobs at 2500 uM GlcN6P” value: < 1e-05 s⁻¹ for the first, < 1e-05 s⁻¹ for the second.

G40U C50A U55C and A6U C10U A15U A53G cannot be ordered by “self-cleavage kobs at 2500 uM GlcN6P” value: < 1e-05 s⁻¹ for the first, < 1e-05 s⁻¹ for the second.

G37A G44U G51U G66A and G7A C8G G9C C10G A12C G13A A14G C16A G41C G66U cannot be ordered by “self-cleavage kobs at 2500 uM GlcN6P” value: < 1e-05 s⁻¹ for the first, < 1e-05 s⁻¹ for the second.

A33G U47A A53G C70U and G43U G60A G66A C68G C70G cannot be ordered by “self-cleavage kobs at 2500 uM GlcN6P” value: < 1e-05 s⁻¹ for the first, < 1e-05 s⁻¹ for the second.

C8U A36C U45G A53G G60C C67A and G40U U46G A48C cannot be ordered by “self-cleavage kobs at 2500 uM GlcN6P” value: < 1e-05 s⁻¹ for the first, < 1e-05 s⁻¹ for the second.

G7U C10U A36U G44U U54A and C11G C34A G37U cannot be ordered by “self-cleavage kobs at 2500 uM GlcN6P” value: < 1e-05 s⁻¹ for the first, < 1e-05 s⁻¹ for the second.

C50U A53U G62C and C10U A36U G51C A53C cannot be ordered by “self-cleavage kobs at 2500 uM GlcN6P” value: < 1e-05 s⁻¹ for the first, < 1e-05 s⁻¹ for the second.

A15G G35C G37U G43C and C10G G37A U56G G62U cannot be ordered by “self-cleavage kobs at 2500 uM GlcN6P” value: < 1e-05 s⁻¹ for the first, < 1e-05 s⁻¹ for the second.

A6G G60U G66U and A36C A42U G63C cannot be ordered by “self-cleavage kobs at 2500 uM GlcN6P” value: < 1e-05 s⁻¹ for the first, < 1e-05 s⁻¹ for the second.

Going from U30G A33U G35C U46C to G40U A64G C71A, the “self-cleavage kobs at 2500 uM GlcN6P” value rises from < 1e-05 s⁻¹ to 0.00288 ± 0.0008 s⁻¹.

Going from A33C C50G to G13U U54A U65A, the “self-cleavage kobs at 2500 uM GlcN6P” value falls from 0.000218 ± 9.9e-05 s⁻¹ to 5.74e-05 ± 1.5e-05 s⁻¹ (3.8-fold).

First: A42U G43U C50G
Second: C11U G35C U54A G60U C71A
The “self-cleavage kobs at 2500 uM GlcN6P” value of the first is higher: 7.64e-05 ± 3.6e-05 s⁻¹ for the first, < 1e-05 s⁻¹ for the second.

C11U U31C G32A A64U and G37U G40U U55C cannot be ordered by “self-cleavage kobs at 2500 uM GlcN6P” value: < 1e-05 s⁻¹ for the first, < 1e-05 s⁻¹ for the second.

First: C11U C16G G43A
Second: C16A A36U C68G
The “self-cleavage kobs at 2500 uM GlcN6P” value of the first is lower: < 1e-05 s⁻¹ for the first, 0.000692 ± 0.0002 s⁻¹ for the second.

Compared with A14G G37C A39G, A14G G51C G62C U65A C68G C70A is lower in “self-cleavage kobs at 2500 uM GlcN6P” value: 6.41e-05 ± 1.9e-05 s⁻¹ for the first, < 1e-05 s⁻¹ for the second.

Going from A33G A53C U65A C67U to C11G G29A C70U, the “self-cleavage kobs at 2500 uM GlcN6P” value rises from < 1e-05 s⁻¹ to 6.76e-05 ± 3.2e-05 s⁻¹.

G7U A12U G44U and G38C U49G U55A U65G cannot be ordered by “self-cleavage kobs at 2500 uM GlcN6P” value: < 1e-05 s⁻¹ for the first, < 1e-05 s⁻¹ for the second.

Compared with U47A G62C C68G C71G, A12U G44U C70U is 3.4-fold lower in “self-cleavage kobs at 2500 uM GlcN6P” value: 0.000178 ± 4.9e-05 s⁻¹ for the first, 5.27e-05 ± 1.8e-05 s⁻¹ for the second.

Compared with G37C G44A G51U G59C, A12C C16U U57A is higher in “self-cleavage kobs at 2500 uM GlcN6P” value: < 1e-05 s⁻¹ for the first, 4.57e-05 ± 1.5e-05 s⁻¹ for the second.

G37A U49C A53U and A36G U65C C68G cannot be ordered by “self-cleavage kobs at 2500 uM GlcN6P” value: < 1e-05 s⁻¹ for the first, < 1e-05 s⁻¹ for the second.

Compared with U46G U47A C71A, A6U C16G G40C G41A C70A is lower in “self-cleavage kobs at 2500 uM GlcN6P” value: 0.00116 ± 0.00028 s⁻¹ for the first, < 1e-05 s⁻¹ for the second.

Compared with C8A U30C G62A, G66U C68U C71G is higher in “self-cleavage kobs at 2500 uM GlcN6P” value: < 1e-05 s⁻¹ for the first, 5.06e-05 ± 2.1e-05 s⁻¹ for the second.

A36C G40U U55A U56G C70G and G32A G38U A53C U55C G60C C71U cannot be ordered by “self-cleavage kobs at 2500 uM GlcN6P” value: < 1e-05 s⁻¹ for the first, < 1e-05 s⁻¹ for the second.

Going from C8A G32C C34G A42U C61A to G29C U46G U55G, the “self-cleavage kobs at 2500 uM GlcN6P” value rises from < 1e-05 s⁻¹ to 3.45e-05 ± 1.5e-05 s⁻¹.

Compared with A33C G63A C68A, U45C U47G is higher in “self-cleavage kobs at 2500 uM GlcN6P” value: < 1e-05 s⁻¹ for the first, 0.000218 ± 9.6e-05 s⁻¹ for the second.

G7A C8U C10U A12C A36C U49G G60C A64U and C11G G29C G37U A52C cannot be ordered by “self-cleavage kobs at 2500 uM GlcN6P” value: < 1e-05 s⁻¹ for the first, < 1e-05 s⁻¹ for the second.

Compared with A6U G38A C50G C67U, A12U U49G G59C is lower in “self-cleavage kobs at 2500 uM GlcN6P” value: 6.17e-05 ± 1.7e-05 s⁻¹ for the first, < 1e-05 s⁻¹ for the second.

First: C8G A12U U31A G51C
Second: C16A U31G G32U
The “self-cleavage kobs at 2500 uM GlcN6P” value of the first is lower: < 1e-05 s⁻¹ for the first, 9.46e-05 ± 1.9e-05 s⁻¹ for the second.

Going from C11U A12G U31G to G9U G41U G60U C70U, the “self-cleavage kobs at 2500 uM GlcN6P” value falls from 0.000738 ± 0.00012 s⁻¹ to < 1e-05 s⁻¹.

Going from A33G U69G to C16G G43A U57A G66U U69A, the “self-cleavage kobs at 2500 uM GlcN6P” value falls from 5.67e-05 ± 1.7e-05 s⁻¹ to < 1e-05 s⁻¹.

C16G G44U C70A and G13U G43U G63U cannot be ordered by “self-cleavage kobs at 2500 uM GlcN6P” value: < 1e-05 s⁻¹ for the first, < 1e-05 s⁻¹ for the second.

In the case of G7U C34U G60U A64G, the “self-cleavage kobs at 2500 uM GlcN6P” value is reported as < 1e-05 s⁻¹.

Variants of: B1
Assay: self-cleavage kobs at 10000 uM GlcN6P; higher = faster cleavage; RNA array
Conditions: with glucosamine-6-phosphate
Method in brief: as §1

Going from C16U G29A G41U G51U to A39U A48U C67G, the “self-cleavage kobs at 10000 uM GlcN6P” value rises from < 1e-05 s⁻¹ to 0.000104 ± 1.6e-05 s⁻¹.

Compared with A12G U49G A64G, A12C C16U U57A is 2.2-fold higher in “self-cleavage kobs at 10000 uM GlcN6P” value: 7.02e-05 ± 2e-05 s⁻¹ for the first, 0.000157 ± 3.4e-05 s⁻¹ for the second.

Going from C11U A12G U31G to G7U C34U G60U A64G, the “self-cleavage kobs at 10000 uM GlcN6P” value falls from 0.00126 ± 0.0003 s⁻¹ to < 1e-05 s⁻¹.
